Source: article PMC10562830

Target: Chikungunya virus-like particles of the 37997 strain (chikungunya virus (strain 37997))

B1: 506.C01 (antibody, V domains shown)
VH: QVQLQESGPGLVKPSQTLSLTCTVSGGSISSDDYYWTWIRLPPGKGLEWIGYIFYTGGTYYNPSLKSRVTISLDRSKNQFSLKLSSVTAADTAVYFCARAPETYCSTTNCYKGYFDSWGQGTLVTVSS
VL: DIQMTQSPSSVSASVGDRVTITCRASQGISSWLGWYQQKPGKAPKLLIYAASSLQSGVPSRFSGSGSGTDFTLTISSLQPEDFATYYCQQANSFPRTFGQGTKVEIK
- FRNT neutralisation of CHIKV-37997 and CHIKV-LR 2006 on Vero cells, EC50: < 10 ng/mL
